Results published in paper PMC10356863, “Architecture of the human G-protein-methylmalonyl-CoA mutase nanoassembly for B12 delivery and repair” (Nature Communications, 2023).
Changes are numbered by the printed parent chain.

Legend:
Assay in all cases: cell-based or functional assay
[1] = molecular target: T1, human MMUT R228Q (patient variant) (human, UniProt P22033 33-750, R228Q)
T1 sequence: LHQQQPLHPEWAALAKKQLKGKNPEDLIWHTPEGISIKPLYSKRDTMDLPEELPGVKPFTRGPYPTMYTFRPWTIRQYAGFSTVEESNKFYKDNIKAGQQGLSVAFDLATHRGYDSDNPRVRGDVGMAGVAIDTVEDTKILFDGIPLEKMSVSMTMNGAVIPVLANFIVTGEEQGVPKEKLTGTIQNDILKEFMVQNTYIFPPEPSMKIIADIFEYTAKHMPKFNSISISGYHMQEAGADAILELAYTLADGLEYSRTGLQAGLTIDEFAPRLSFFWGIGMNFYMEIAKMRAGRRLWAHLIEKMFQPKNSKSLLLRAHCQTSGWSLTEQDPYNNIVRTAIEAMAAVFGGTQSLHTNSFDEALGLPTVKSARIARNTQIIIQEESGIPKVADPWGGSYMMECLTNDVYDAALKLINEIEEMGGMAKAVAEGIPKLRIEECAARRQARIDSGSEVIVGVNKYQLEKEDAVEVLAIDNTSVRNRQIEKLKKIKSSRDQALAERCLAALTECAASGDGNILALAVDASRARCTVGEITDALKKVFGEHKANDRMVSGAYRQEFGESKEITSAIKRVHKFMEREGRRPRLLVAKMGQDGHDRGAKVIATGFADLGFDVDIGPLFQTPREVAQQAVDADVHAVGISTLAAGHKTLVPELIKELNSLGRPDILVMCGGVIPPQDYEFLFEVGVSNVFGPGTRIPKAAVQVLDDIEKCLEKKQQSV

[2] = molecular target: T2, human MMUT R616C (patient variant) (human, UniProt P22033 33-750, R616C)
T2 sequence: T1 sequence with Q196R, R584C

[3] = molecular target: T3, human MMUT R694W (patient variant) (human, UniProt P22033 33-750, R694W)
T3 sequence: T1 sequence with Q196R, R662W

B1: human MMAA (G-protein chaperone of MMUT), wild type (enzyme)
chain: KDHTEGLSDKEQRFVDKLYTGLIQGQRACLAEAITLVESTHSRKKELAQVLLQKVLLYHREQEQSNKGKPLAFRVGLSGPPGAGKSTFIEYFGKMLTERGHKLSVLAVDPSSCTSGGSLLGDKTRMTELSRDMNAYIRPSPTRGTLGGVTRTTNEAILLCEGAGYDIILIETVGVGQSEFAVADMVDMFVLLLPPAGGDELQGIKRGIIEMADLVAVTKSDGDLIVPARRIQAEYVSALKLLRKRSQVWKPKVIRISARSGEGISEMWDKMKDFQDLMLASGELTAKRRKQQKVWMWNLIQESVLEHFRTHPTVREQIPLLEQKVLIGALSPGLAADFLLKAFKSRD
- GAP activation: GTPase activity of MMAA in the presence of MMUT, fold attenuation against wild-type MMUT [1]: 12 fold
- GAP activation: GTPase activity of MMAA in the presence of MMUT, fold attenuation against wild-type MMUT [2]: 7 fold
- GAP activation: GTPase activity of MMAA in the presence of MMUT, fold attenuation against wild-type MMUT [3]: 12 fold
